Results reported in PMC7144908.

B1: ssDNA(GAPDH) (ssDNA)
DNA: CGACAGTCAGCCGCATCTTCTTTTGCGTCGCCAGCCGAGCCCTATAGTGAGTCGTAT
B2: ssDNA(Site2) (ssDNA)
DNA: GCTCAGAGGCCGAGGCGGCCTCGGCCTCTGCATAAATAAAAAAAATTAGTCAGCCAT
B3: dsDNA(GAPDH) (dsDNA)
DNA 1: B1 DNA
DNA 2: ATACGACTCACTATAGGGCTCGGCTGGCGACGCAAAAGAAGATGCGGCTGACTGTCG
B4: dsDNA(Site2) (dsDNA)
DNA 1: B2 DNA
DNA 2: ATGGCTGACTAATTTTTTTTATTTATGCAGAGGCCGAGGCCGCCTCGGCCTCTGAGC

Experiments:
[1] = biological target: T1, SV40 large T antigen (Tag) (Simian virus 40, UniProt P03070 1-708); experiment: EMSA
[2] = biological target: T1, SV40 large T antigen (Tag); experiment: EMSA; remark: listed apart in the source
[3] = biological target: T1, SV40 large T antigen (Tag); experiment: EMSA; remark: listed apart in the source
[4] = biological target: T1, SV40 large T antigen (Tag); experiment: DSF
[5] = biological target: Replication protein A (RPA) (human, UniProt P27694;P15927;P35244 1-616;1-270;1-121); experiment: EMSA
[6] = biological target: SV40 large T antigen (Tag);Replication protein A (RPA) (Simian virus 40;human, UniProt P03070;P27694;P15927;P35244 1-708;1-616;1-270;1-121, |); experiment: EMSA
[7] = biological target: T1, SV40 large T antigen (Tag); experiment: DSF; remark: listed apart in the source
[8] = biological target: T1, SV40 large T antigen (Tag); experiment: EMSA; remark: listed apart in the source
[9] = biological target: T1, SV40 large T antigen (Tag); experiment: DSF; remark: listed apart in the source
[10] = biological target: T1, SV40 large T antigen (Tag); experiment: EMSA; remark: listed apart in the source
[11] = biological target: T1, SV40 large T antigen (Tag); experiment: EMSA; remark: listed apart in the source
[12] = biological target: T1, SV40 large T antigen (Tag); experiment: EMSA; remark: listed apart in the source
[13] = biological target: T1, SV40 large T antigen (Tag); experiment: DSF; remark: listed apart in the source
[14] = biological target: T1, SV40 large T antigen (Tag); experiment: AUC

T1 sequence (P03070 whole entry): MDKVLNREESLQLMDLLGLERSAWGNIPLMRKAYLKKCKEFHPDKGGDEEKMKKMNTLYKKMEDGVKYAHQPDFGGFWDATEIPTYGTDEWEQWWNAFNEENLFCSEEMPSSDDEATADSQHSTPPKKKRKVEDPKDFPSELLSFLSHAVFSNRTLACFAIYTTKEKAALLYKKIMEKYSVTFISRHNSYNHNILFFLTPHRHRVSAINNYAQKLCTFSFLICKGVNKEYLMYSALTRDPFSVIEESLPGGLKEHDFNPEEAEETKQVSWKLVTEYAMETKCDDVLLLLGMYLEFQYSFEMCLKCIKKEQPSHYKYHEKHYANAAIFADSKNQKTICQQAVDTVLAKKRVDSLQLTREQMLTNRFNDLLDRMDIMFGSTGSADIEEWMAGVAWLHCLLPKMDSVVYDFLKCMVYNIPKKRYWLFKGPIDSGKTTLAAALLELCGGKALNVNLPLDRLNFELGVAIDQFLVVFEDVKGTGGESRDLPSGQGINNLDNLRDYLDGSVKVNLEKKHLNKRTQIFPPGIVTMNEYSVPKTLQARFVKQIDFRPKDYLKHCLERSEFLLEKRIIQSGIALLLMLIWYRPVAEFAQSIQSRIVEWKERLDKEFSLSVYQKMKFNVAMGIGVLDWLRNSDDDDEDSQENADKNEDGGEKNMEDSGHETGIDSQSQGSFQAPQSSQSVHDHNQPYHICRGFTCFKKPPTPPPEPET
Replication protein A (RPA), sequence (P27694 whole entry, chain 1 of 3): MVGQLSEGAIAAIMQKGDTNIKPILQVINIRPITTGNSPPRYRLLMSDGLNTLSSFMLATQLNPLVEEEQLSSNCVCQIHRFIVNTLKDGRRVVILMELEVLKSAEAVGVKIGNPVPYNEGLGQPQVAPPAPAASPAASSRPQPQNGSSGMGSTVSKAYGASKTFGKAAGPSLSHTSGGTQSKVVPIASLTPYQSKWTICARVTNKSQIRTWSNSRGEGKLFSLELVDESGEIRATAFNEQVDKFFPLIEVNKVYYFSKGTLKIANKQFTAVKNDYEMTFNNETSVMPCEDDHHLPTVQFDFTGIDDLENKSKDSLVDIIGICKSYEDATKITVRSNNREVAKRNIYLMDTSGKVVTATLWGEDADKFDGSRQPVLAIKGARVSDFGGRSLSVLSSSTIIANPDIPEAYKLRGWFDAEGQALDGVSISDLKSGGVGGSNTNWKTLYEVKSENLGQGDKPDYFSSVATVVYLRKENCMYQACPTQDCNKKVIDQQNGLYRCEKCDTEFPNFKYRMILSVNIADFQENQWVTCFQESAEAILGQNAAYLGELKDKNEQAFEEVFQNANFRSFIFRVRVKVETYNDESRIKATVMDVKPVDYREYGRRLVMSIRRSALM
Replication protein A (RPA), sequence (P15927 whole entry, chain 2 of 3): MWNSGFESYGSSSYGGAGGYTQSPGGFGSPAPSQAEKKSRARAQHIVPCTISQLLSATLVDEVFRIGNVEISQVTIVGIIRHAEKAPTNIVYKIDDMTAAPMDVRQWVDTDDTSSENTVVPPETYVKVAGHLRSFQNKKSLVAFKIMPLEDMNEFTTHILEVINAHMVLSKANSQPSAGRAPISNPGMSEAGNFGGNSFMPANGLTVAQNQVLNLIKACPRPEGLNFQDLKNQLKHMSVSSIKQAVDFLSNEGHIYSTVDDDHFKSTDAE
Replication protein A (RPA), sequence (P35244 whole entry, chain 3 of 3): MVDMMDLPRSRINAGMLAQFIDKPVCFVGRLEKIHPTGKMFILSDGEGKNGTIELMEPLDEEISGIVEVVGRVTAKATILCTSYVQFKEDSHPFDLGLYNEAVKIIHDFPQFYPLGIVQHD
SV40 large T antigen (Tag);Replication protein A (RPA), sequence (P03070 whole entry, chain 1 of 4): as the sequence (P03070 whole entry) above
SV40 large T antigen (Tag);Replication protein A (RPA), sequence (P27694 whole entry, chain 2 of 4): as the sequence (P27694 whole entry, chain 1 of 3) above
SV40 large T antigen (Tag);Replication protein A (RPA), sequence (P15927 whole entry, chain 3 of 4): as the sequence (P15927 whole entry, chain 2 of 3) above
SV40 large T antigen (Tag);Replication protein A (RPA), sequence (P35244 whole entry, chain 4 of 4): as the sequence (P35244 whole entry, chain 3 of 3) above

| Binder | Kd [3] | Kd [4] | Kd [11] | Kd [13] | further results |
| --- | --- | --- | --- | --- | --- |
| B1 | 40 ± 10 nM | 10 ± 1 nM |  |  | Kd [1]: 80 ± 40 nM; Kd [2]: ~110 nM; Kd [5]: ~10 nM; binding result [6]: binds |
| B2 | 70 ± 8 nM | 50 ± 10 nM | 40 ± 5 nM | 40 ± 7 nM | Kd [7]: 200 ± 60 nM; Kd [8]: 70 ± 10 nM; Kd [9]: 100 ± 30 nM; Kd [10]: 80 ± 30 nM; Kd [12]: 40 ± 10 nM |
| B3 |  |  |  | 5800 ± 4000 nM |  |
| B4 | 220 ± 130 nM |  | 100 ± 50 nM | 120 ± 110 nM |  |
| GGTCGACTCTAGAGGATCAGATCTGGTACCTCTAGACTCGAGGCATGC (ssDNA) [ssDNA (gap) 48-mer] |  |  |  |  | binding result [14]: binds |
